Experimental data as given in patent US20110064670A1, “METHOD TO IDENTIFY A PATIENT WITH AN INCREASED LIKELIHOOD OF RESPONDING TO AN ANTI-CANCER AGENT” (Genentech, Inc., priority 2009, published 2011).

Tested on: non-tumor bearing mice
Experiment: Lymph pulsation frequency assay in non-tumor bearing mice
Assay type: in vivo, mouse
Conditions: acute injection, n=6 animals/group (FIG. 6B)
Description: Female Balb-c nude mice from Charles River Laboratory were used at 6-8 weeks of age. To establish baseline pulsation frequency and lymph node loading rates we imaged non-tumor bearing mice. In some cases mice were longitudinally imaged for pulsation, i.e., the same mouse was imaged daily over a 7-day period. Mice were anesthetized with 2% Isoflurane and maintained at 37° C. throughout experiments. A PulseOx probe was attached to the thigh (opposing injection site) to monitor heart rate before running pulsation assays.
For all experiments fluorescent dye injections were performed with 5 mg AlexaFluor680 conjugated to dextran 70 kd (MolecularProbes) in 1 ml sterile PBS. […]
Epi-fluorescence Microscopy Pulsatile flow activity was observed using an epifluorescence microscope (Prairie Technologies) equipped with a Cy5.5 Red filter set (Chroma), Halogen light source (ExFo Excite Series 120), 4× objective lens (Olympus) and a charge coupled device (CCD) camera (S97827, Olympus). […] Pulsation and heart rates were monitored (PulseOx) for stability for 10 minutes before video capture. […]
Digital videos (5 minutes) of pulsation were acquired with PictureFrame software (Optronics) using time lapse settings (282 ms exposure, no inter-frame delay, 5 minutes total acquisition time). Data was analyzed off-line from recorded time lapse videos. […]

B1: recombinant VEGF-C protein: recombinant VEGF-C protein injected acutely in non-tumor bearing mice (protein, UniProt P97953 108-223, looked up)
Vascular endothelial growth …: AHYNTEILKSIDNEWRKTQCMPREVCIDVGKEFGAATNTFFKPPCVSVYRCGGCCNSEGLQCMNTSTGYLSKTLFEITVPLSQGPKPVTISFANHTSCRCMSKLDVYRQVHSIIRR
lymph pulsation frequency: does not result in any significant change
